Measurements taken from article PMC8794075 (Emerging Microbes & Infections, 2022).

Target: prefusion-stabilized SARS-CoV-2 S-trimer protein (wild type, Wuhan-Hu-1) (SARS-CoV-2, UniProt P0DTC2)
Test: cell-based or functional assay

B1: MAb S3H3 (antibody, V domains shown)
VH: QVQLQQPGAELVRPGASVKLSCKASGYSFTRFWMNWVKQRPGQGLEWIGMIHPSDSETRLNQKFKDKATLTVDKSSTTAYMQLSSPTSEDSAVYYCARKDYDYDAWFAYWGQGTLVTVSA
VL: DIVLTQSPASLAVSLGQRATISCRASKSVSASVYSYMHWYQQKPGQPPKLLIYLASSLESGVPARFSGSGSGTDFTLNIHPVEEEDAATYYCHHSRELPPAFGGGTKLEIK
In the case of B1, the “IC50 of neutralisation of WT S pseudovirus” value is reported as 0.083 µg/mL.
